# According to the supplement of paper PMC9732359:
# ± gives the uncertainty stated by the source.
# Test: protein stability index of a GFP-peptide fusion (yeast GPS) (PSI 1-4); higher = more stable; sorted into four equal gates, so the index is relative within each strain
# Method in brief: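 Tiled yeast protein peptides of 17 residues were each joined downstream of GFP, on plasmids that also express Cherry. The pooled library was maintained in yeast, and mid-log cultures in leucine-free medium were sorted into four equal gates on the GFP/Cherry ratio. Plasmids from every gate were amplified by PCR and sequenced on Illumina, with barcodes linking reads to strains. The protein stability index of a peptide is its gate-number-weighted read frequency summed over the gates.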
Sequence,protein stability index (doa10∆),protein stability index (pdr5∆),protein stability index (san1∆),protein stability index (ubr1∆)
QTAVTCESCSTVLCTPT [RPS27B],1.89 ± 0.055,2.29 ± 0.058,2.06 ± 0.071,2.09 ± 0.066
HLAVVCVDDNSKISFID [SSN2],–,2.84 ± 0.17,–,3.67 ± 0.16
WRKWNVKVNHNEKRYAT [RPL4A],2.36 ± 0.24,2.94 ± 0.16,1.59 ± 0.13,1.94 ± 0.23
SEIKQQINKAQILENYN [YJL039C/NUP192],2.94 ± 0.089,3.17 ± 0.069,2.73 ± 0.091,3.11 ± 0.057
VTIIEPKEEEPILAPSV [RPS3],3.09 ± 0.13,2.59 ± 0.22,3.01 ± 0.14,2.67 ± 0.13
TPGSVSLSAYNLTDEGY [PRP8],2.23 ± 0.15,2.5 ± 0.077,2.3 ± 0.094,1.96 ± 0.21
ANTGGGLFGANSNSNSG [YGL172W/NUP49],2.11 ± 0.11,2.74 ± 0.077,1.76 ± 0.17,2.22 ± 0.14
IFINYKQTADWLAEKFQ [PRP28],1.7 ± 0.049,1.93 ± 0.06,2.37 ± 0.072,2.36 ± 0.06
NQQAQARQQVAQQLRNQ [GAL11],2.49 ± 0.065,2.94 ± 0.13,2.45 ± 0.14,2.34 ± 0.1
YLKESKRKYDEITHPPS [SWI3],2.59 ± 0.17,3.39 ± 0.15,3.02 ± 0.1,3.05 ± 0.11
LANLIRDALRNIKNTNE [RRP6],2.37 ± 0.045,2.51 ± 0.055,2.63 ± 0.055,2.49 ± 0.036
EEYRKQLDKKNELQKFQ [SMC1],3.44 ± 0.22,3.43 ± 0.12,2.82 ± 0.079,3.45 ± 0.1
IYFTVPNEFEIQLSTVN [RGR1],2.21 ± 0.064,2.22 ± 0.058,1.88 ± 0.061,2.2 ± 0.042
DNMITGVTKGYKYKMRY [RPL9A],3.07 ± 0.096,3.3 ± 0.14,2.92 ± 0.27,3.1 ± 0.067
ATPSAKEASQEDDNNNV [YLR335W/NUP2],2.57 ± 0.058,2.62 ± 0.056,2.76 ± 0.051,2.73 ± 0.05
QPKPLFSFGKSDAAKEP [YOR098C/NUP1],2.52 ± 0.07,2.6 ± 0.039,2.44 ± 0.073,2.72 ± 0.085
ARVLFDDMVEYEDGTPA [CYT1],3.47 ± 0.17,3.09 ± 0.096,3.24 ± 0.085,3.48 ± 0.11
NRSAKNSKNDSANVELF [YCS4],3.09 ± 0.093,3.29 ± 0.11,2.94 ± 0.12,3.39 ± 0.072
ENALIELKNELAKTKEN [YIL149C/MLP2],2.82 ± 0.087,2.97 ± 0.07,2.98 ± 0.068,2.93 ± 0.08
DSTNLSDDAAQFMKRFP [ECM29],2.65 ± 0.11,2.79 ± 0.073,1.45 ± 0.092,3.06 ± 0.1

Sequence,protein stability index (doa10∆),protein stability index (pdr5∆),protein stability index (san1∆),protein stability index (ubr1∆)
ADINSNRLSNPQKNLLL [YOR098C/NUP1],3.11 ± 0.069,3 ± 0.07,2.81 ± 0.065,2.88 ± 0.082
KLEYPHTDVSSSLEARY [RPN3],2.76 ± 0.066,3.01 ± 0.073,2.75 ± 0.077,2.9 ± 0.086
LKAVTVEAGMIALRNGQ [RPT5],3.1 ± 0.23,2.9 ± 0.16,2.51 ± 0.17,–
QQQNASSKLYQMQQQQQ [GAL11],1.76 ± 0.091,1.66 ± 0.073,1.5 ± 0.13,1.78 ± 0.064
KLTQKLVTAGVAAAGIT [CYT1],2.1 ± 0.083,2.21 ± 0.086,2.56 ± 0.065,2.11 ± 0.052
SDEVSRGIPRLSEDELR [SMC4],3.43 ± 0.14,3.69 ± 0.21,3.39 ± 0.14,3.58 ± 0.1
MSIDEEDKDSESFSEVC [YCG1],2.71 ± 0.15,2.34 ± 0.09,2.48 ± 0.15,2.43 ± 0.067
IRITSLQGDLTFTKKCL [SIR4],2.87 ± 0.068,2.71 ± 0.078,2.81 ± 0.085,2.79 ± 0.059
GTKSNEKKDSGSSKPAF [YJL041W/NSP1],3.21 ± 0.063,3.45 ± 0.072,3.42 ± 0.046,3.25 ± 0.069
EDHDVHSNESSNETIGE [IRR1],3 ± 0.079,3.2 ± 0.086,3.28 ± 0.058,3.06 ± 0.075
GVILMFAAILVLLVLPF [COB],2.69 ± 0.062,1.34 ± 0.05,1.25 ± 0.065,1.14 ± 0.046
GAVSLNPSITRLEEESS [RRP4],3 ± 0.2,3.03 ± 0.14,3.07 ± 0.1,2.35 ± 0.08
YERRFGPYFVGPVVAGI [PUP3],3.25 ± 0.22,2.81 ± 0.18,–,3.11 ± 0.16
FDFLDDGTAQLSNNKTD [YJR042W/NUP85],3.38 ± 0.23,3.52 ± 0.21,3.5 ± 0.099,3.39 ± 0.12
MNAGGLFGAKPQNTTAT [YGR119C/NUP57],2.43 ± 0.049,3.29 ± 0.059,3.35 ± 0.058,2.72 ± 0.059
RGQQVENPTDNFIIWIN [GRR1],2.08 ± 0.066,2.35 ± 0.082,2.59 ± 0.063,2.61 ± 0.061
FYMKKDAVEGVSECIIL [RPO31],–,3.07 ± 0.29,2.86 ± 0.14,–
ADEPVKASLLLHVLVAH [FAS2],1.85 ± 0.043,1.59 ± 0.035,1.3 ± 0.059,1.43 ± 0.028
MLWGGASMLGLFVFTEG [QCR10],1.96 ± 0.14,1.82 ± 0.11,2.43 ± 0.26,3.19 ± 0.2
